The target of assay [1] is mAb R24 (anti-GD3 monoclonal antibody, IgG3). Kind of assay: competitive ELISA: BEC2 pre-incubated with mAb R24 (30 min), remaining R24 binding to plate coated with 0.1 µg GD3 ganglioside. For orientation: ELISA stands for enzyme-linked immunosorbent assay.
Assay [2] shares this target. In words: competitive ELISA: peptide pre-incubated with mAb R24, remaining R24 binding to GD3-coated plate.
The target is the same in assay [3]. In words: competitive ELISA: peptide pre-incubated with mAb R24 (30 min), remaining R24 binding to plate coated with 0.1 µg GD3 ganglioside.

By IC50 is commonly meant the concentration that gives 50% inhibition.

Where only a bound is given, the exact number is not on record here.

In assay [1], “mAb BEC2 (anti-idiotypic monoclonal antibody, IgG2b)” came in with a half-maximal inhibitory concentration (IC50) of 10 µg/mL and a concentration giving full inhibition of 60 µg/mL.

B1: GD3-like peptide PGD3-6 (peptide)
peptide: SVAVPPPADDPSWRY
In assay [2], B1 gave a concentration giving full inhibition of over 600 pmol/mL. The molecule further yielded an IC50 in assay [3] of 250 nM.

B2: GD3-like peptide PGD3-4 (peptide)
peptide: RHAYRSMAEWGFLYS
In assay [2], B2 registered a concentration giving full inhibition of over 600 pmol/mL. The IC50 in assay [3] was 150 nM.

B3: GD3-like peptide PGD3-3 (peptide)
peptide: GLAPPDYAERFFLIS
B3 returned a concentration giving full inhibition in assay [2] of over 600 pmol/mL. The molecule also registered a half-maximal inhibitory concentration (IC50) in assay [3] of 300 nM.

B4: GD3-like peptide PGD3-5 (peptide)
peptide: ACTPYAMLPGCK
In turn, B4 registered a concentration giving full inhibition in assay [2] of over 600 pmol/mL. The molecule also returned a half-maximal inhibitory concentration (IC50) in assay [3] of 100 nM.
